This is an account of results in publication PMC3679522 (eLife, 2013).

The chains are these.
B1: importin β from S. cerevisiae (ScKap95) (natural protein)
chain: MSTAEFAQLLENSILSPDQNIRLTSETQLKKLSNDNFLQFAGLSSQVLIDENTKLEGRILAALTLKNELVSKDSVKTQQFAQRWITQVSPEAKNQIKTNALTALVSIEPRIANAAAQLIAAIADIELPHGAWPELMKIMVDNTGAEQPENVKRASLLALGYMCESADPQSQALVSSSNNILIAIVQGAQSTETSKAVRLAALNALADSLIFIKNNMEREGERNYLMQVVCEATQAEDIEVQAAAFGCLCKIMSLYYTFMKPYMEQALYALTIATMKSPNDKVASMTVEFWSTICEEEIDIAYELAQFPQSPLQSYNFALSSIKDVVPNLLNLLTRQNEDPEDDDWNVSMSAGACLQLFAQNCGNHILEPVLEFVEQNITADNWRNREAAVMAFGSIMDGPDKVQRTYYVHQALPSILNLMNDQSLQVKETTAWCIGRIADSVAESIDPQQHLPGVVQACLIGLQDHPKVATNCSWTIINLVEQLAEATPSPIYNFYPALVDGLIGAANRIDNEFNARASAFSALTTMVEYATDTVAETSASISTFVMDKLGQTMSVDENQLTLEDAQSLQELQSNILTVLAAVIRKSPSSVEPVADMLMGLFFRLLEKKDSAFIEDDVFYAISALAASLGKGFEKYLETFSPYLLKALNQVDSPVSITAVGFIADISNSLEEDFRRYSDAMMNVLAQMISNPNARRELKPAVLSVFGDIASNIGADFIPYLNDIMALCVAAQNTKPENGTLEALDYQIKVLEAVLDAYVGIVAGLHDKPEALFPYVGTIFQFIAQVAEDPQLYSEDATSRAAVGLIGDIAAMFPDGSIKQFYGQDWVIDYIKRTRSGQLFSQATKDTARWAREQQKRQLSL
notes: Kap95 (importin β) of S. cerevisiae, PCR-amplified ORF

Assay [1] has as its target ZZ-HsRanQ69L (human, UniProt P62826 1-216, Q69L). Briefly: SEC; 2 μM of each protein, 20 min on ice, Superdex 200 10/300 in Ran binding buffer (10 mM HEPES pH 7.4, 150 mM NaCl, 2 mM MgOAc2, 1 mM DTT); fractions by SDS-PAGE (SYPRO Ruby) and Western blot against the ZZ-tag. Particulars: both partners purified. (Size exclusion chromatography separates by hydrodynamic size, large species first.)

In assay [2] the target is B1. Description: pull-down; GST-FG fusions pre-bound to GSH beads; soluble protein (100-500 pmol) pre-mixed with 200 μg bacterial extract proteins in 0.5 ml pulldown buffer (10 mM HEPES pH 7.5, 160 mM KOAc, 1 mM MgOAc2, 1 mM DTT, 0.01% Triton X-100); 20 min, room temperature; eluted with 1 M NaCl, then SDS-sample buffer; SDS-PAGE, SYPRO Ruby. Particulars: both partners purified.

Regarding B1, the binding result in assay [1] is “binds”.

B2: GST-Nup100(1–610) (domain or fragment, S. cerevisiae, UniProt Q02629 1-610, looked up)
chain: MFGNNRPMFGGSNLSFGSNTSSFGGQQSQQPNSLFGNSNNNNNSTSNNAQSGFGGFTSAAGSNSNSLFGNNNTQNNGAFGQSMGATQNSPFGSLNSSNASNGNTFGGSSSMGSFGGNTNNAFNNNSNSTNSPFGFNKPNTGGTLFGSQNNNSAGTSSLFGGQSTSTTGTFGNTGSSFGTGLNGNGSNIFGAGNNSQSNTTGSLFGNQQSSAFGTNNQQGSLFGQQSQNTNNAFGNQNQLGGSSFGSKPVGSGSLFGQSNNTLGNTTNNRNGLFGQMNSSNQGSSNSGLFGQNSMNSSTQGVFGQNNNQMQINGNNNNSLFGKANTFSNSASGGLFGQNNQQQGSGLFGQNSQTSGSSGLFGQNNQKQPNTFTQSNTGIGLFGQNNNQQQQSTGLFGAKPAGTTGSLFGGNSSTQPNSLFGTTNVPTSNTQSQQGNSLFGATKLTNMPFGGNPTANQSGSGNSLFGTKPASTTGSLFGNNTASTTVPSTNGLFGNNANNSTSTTNTGLFGAKPDSQSKPALGGGLFGNSNSNSSTIGQNKPVFGGTTQNTGLFGATGTNSSAVGSTGKLFGQNNNTLNVGTQNVPPVNNTTQNALLGTTAVPSLQQAPVTN
notes: Nup100 of budding yeast, GLFG-type FG-repeat region, residues 1-610; source: E. coli BL21(DE3), purified (GSH beads, eluted with glutathione, dialysed); not shown: GST, N-terminal, kept
As for B2, the binding result in assay [2] was “binds”.
